Experimental data published in US20070219133A1.

Experiments:
[1] = biological target: extracellular region of human F158 FcγRIIIa (human) (UniProt P08637); assay: SPR
[2] = biological target: His-tagged human V158 FcγRIIIa (immobilized on SPR chip) (human) (UniProt P08637); assay: SPR, His-tagged V158 FcγRIIIa immobilized
[3] = biological target: human FcγRIIIa on human PBMC effector cells (human) (UniProt P08637); assay: cell-based or functional assay
[4] = biological target: extracellular region of human V158 FcγRIIIa fused with GST (human) (UniProt P08637); assay: AlphaScreen competition
[5] = biological target: extracellular region of human F158 FcγRIIIa (human) (UniProt P08637); assay: AlphaScreen competition
[6] = biological target: extracellular region of human FcγRIIb (human) (UniProt P31994); assay: AlphaScreen competition, trastuzumab context
[7] = biological target: extracellular region of human FcγRIIb (human) (UniProt P31994); assay: AlphaScreen competition

extracellular region of human FcγRIIb (human), sequence (P31994 43-217): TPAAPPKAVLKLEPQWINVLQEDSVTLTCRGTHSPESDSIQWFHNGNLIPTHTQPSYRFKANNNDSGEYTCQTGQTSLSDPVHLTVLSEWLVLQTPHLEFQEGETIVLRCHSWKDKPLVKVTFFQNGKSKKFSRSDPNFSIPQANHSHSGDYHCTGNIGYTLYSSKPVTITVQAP
extracellular region of human V158 FcγRIIIa fused with GST (human), sequence (P08637 17-208 F176V): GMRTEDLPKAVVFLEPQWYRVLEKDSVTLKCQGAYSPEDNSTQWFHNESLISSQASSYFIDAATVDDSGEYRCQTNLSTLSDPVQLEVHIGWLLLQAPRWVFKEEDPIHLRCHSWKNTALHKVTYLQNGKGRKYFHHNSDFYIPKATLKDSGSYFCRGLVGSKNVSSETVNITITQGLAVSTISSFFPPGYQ
His-tagged human V158 FcγRIIIa (immobilized on SPR chip) (human), sequence (P08637 17-208 F176V limits assumed): as the sequence (P08637 17-208 F176V) above
extracellular region of human F158 FcγRIIIa (human), sequence (P08637 17-208): as the sequence (P08637 17-208 F176V) above, with V160F counted along it

Row | FcγRIIIa Fold [4] | Substance | also measured
1 | 56.1 fold vs WT | alemtuzumab Fc variant S239D/I332E (antibody) | ADCC EC50 (ng/ml), DoHH-2 targets, PBMCs heterozygous V158/F158 FcγRIIIa [3]: 3 ng/mL; ADCC Fold Improvement Over WT [3]: 3.3 fold
2 | 12.5 fold vs WT | alemtuzumab Fc variant V264I/I332E (antibody) | ADCC EC50 (ng/ml), DoHH-2 targets, PBMCs heterozygous V158/F158 FcγRIIIa [3]: 4 ng/mL; ADCC Fold Improvement Over WT [3]: 2.5 fold; Fold [1]: 14 fold vs WT; Kd [1]: 0.052 µM; Fold [5]: 15.6 fold vs WT; IC50 [5]: 0.0011 µM; Fold [4]: 12.8 fold vs WT; IC50 [4]: 0.0005 µM; Fold [2]: 4 fold vs WT; Kd [2]: 0.017 µM
3 | 0.85 fold vs WT | trastuzumab Fc variant E233D (antibody) | 
4 | 8.7 fold vs WT | trastuzumab Fc variant E272Y (antibody) | 
5 | 1.06 fold vs WT | trastuzumab Fc variant E318R (antibody) | 
6 | 0.78 fold vs WT | trastuzumab Fc variant E333T (antibody) | 
7 | 1.11 fold vs WT | trastuzumab Fc variant F275W (antibody) | 
8 | 1.41 fold vs WT | trastuzumab Fc variant K274R (antibody) | 
9 | 1.06 fold vs WT | trastuzumab Fc variant K274Y (antibody) | 
10 | 1.88 fold vs WT | trastuzumab Fc variant K326T (antibody) | 
11 | 0.41 fold vs WT | trastuzumab Fc variant N276S (antibody) | 
12 | 1.09 fold vs WT | trastuzumab Fc variant P230A (antibody) | 
13 | 0.92 fold vs WT | trastuzumab Fc variant P230A/E233D (antibody) | 
14 | 1.87 fold vs WT | trastuzumab Fc variant P230A/E233D/I332E (antibody) | 
15 | 64.1 fold vs WT | trastuzumab Fc variant S239D/A330Y/I332E/K326E (antibody) | 
16 | 7.04 fold vs WT | trastuzumab Fc variant S239D/A330Y/I332E/L235D (antibody) | 

Row | FcγRIIIa Fold [4] | Substance | also measured
17 | 28 fold vs WT | trastuzumab Fc variant S239D/A330Y/I332E/V240I (antibody) | 
18 | 17.7 fold vs WT | trastuzumab Fc variant S239D/A330Y/I332E/V264T (antibody) | 
19 | 59.1 fold vs WT | trastuzumab Fc variant S239D/I332E/A330I (antibody) | 
20 | 36.6 fold vs WT | trastuzumab Fc variant S239D/V264I/I332E (antibody) | FcγRIIb Fold [7]: 14.4 fold vs WT
21 | 12.9 fold vs WT | trastuzumab Fc variant S239N/A330L/I332E (antibody) | 
22 | 14.2 fold vs WT | trastuzumab Fc variant S239N/A330Y/I332E (antibody) | 
23 | 1.15 fold vs WT | trastuzumab Fc variant S324I (antibody) | 
24 | 117 fold vs WT | trastuzumab Fc variant S324V (antibody) | 
25 | 0.98 fold vs WT | trastuzumab Fc variant S324Y (antibody) | 
26 | 2.79 fold vs WT | trastuzumab Fc variant T335D (antibody) | 
27 | 2.58 fold vs WT | trastuzumab Fc variant T335R (antibody) | 
28 | 16.5 fold vs WT | trastuzumab Fc variant V264I/S298A/I332E (antibody) | 
29 | 1.01 fold vs WT | trastuzumab Fc variant V302I (antibody) | 
30 | 0.9 fold vs WT | trastuzumab Fc variant Y278E (antibody) | 
31 | 0.41 fold vs WT | trastuzumab Fc variant Y278W (antibody) | 

More lines, now with the values behind:

Row | Substance | FcγRIIIa Fold [4] | also measured
32 | alemtuzumab Fc variant I332E (antibody) |  | Kd [1]: 0.072 µM; Kd [2]: 0.031 µM
33 | alemtuzumab Fc variant S298A (antibody) |  | Kd [1]: 0.285 µM; Kd [2]: 0.052 µM
34 | alemtuzumab Fc variant S298A/E333A/K334A (antibody) |  | Kd [1]: 0.156 µM; Kd [2]: 0.039 µM
35 | alemtuzumab Fc variant V264I (antibody) |  | Kd [1]: 0.55 µM; Kd [2]: 0.064 µM
36 | alemtuzumab Fc variant W313F (antibody) | 0.88 fold vs WT | 
37 | trastuzumab Fc variant E283R (antibody) | 0.67 fold vs WT | 
38 | trastuzumab Fc variant E333H (antibody) | 0.75 fold vs WT | 
39 | trastuzumab Fc variant K274E (antibody) | 6.11 fold vs WT | 
40 | trastuzumab Fc variant K274L (antibody) | 1.09 fold vs WT | 
41 | trastuzumab Fc variant K274T (antibody) | 1.41 fold vs WT | 
42 | trastuzumab Fc variant K326I (antibody) | 1.43 fold vs WT | 
43 | trastuzumab Fc variant L234I/L235D (antibody) | 0.07 fold vs WT | 
44 | trastuzumab Fc variant N276E (antibody) | 0.87 fold vs WT | 
45 | trastuzumab Fc variant N276R (antibody) | 0.66 fold vs WT | 
46 | trastuzumab Fc variant N276Y (antibody) | 0.56 fold vs WT | 
47 | trastuzumab Fc variant S239D (antibody) |  | FcγRIIb Fold [6]: 4.47 fold vs WT
48 | trastuzumab Fc variant S239D/A330Y/I332E/L234I (antibody) | 22.4 fold vs WT | 
49 | trastuzumab Fc variant S239D/I332E (antibody) |  | FcγRIIb Fold [6]: 19.7 fold vs WT
50 | trastuzumab Fc variant S239N/S298A/I332E (antibody) | 32.1 fold vs WT | FcγRIIb Fold [7]: 5.15 fold vs WT
51 | trastuzumab Fc variant S324R (antibody) | 0.71 fold vs WT | 
52 | trastuzumab Fc variant T335Y (antibody) | 1.56 fold vs WT | 
53 | trastuzumab Fc variant V240I/V266I (antibody) | 1.72 fold vs WT | 
54 | trastuzumab Fc variant V273I (antibody) | 0.79 fold vs WT | 
55 | trastuzumab Fc variant V323I (antibody) | 0.83 fold vs WT | 
56 | trastuzumab Fc variant Y278T (antibody) | 1.87 fold vs WT | 
57 | wild type alemtuzumab (Campath), IgG1, expressed in 293T cells (antibody) |  | ADCC EC50 (ng/ml), DoHH-2 targets, PBMCs heterozygous V158/F158 FcγRIIIa [3]: 9.9 ng/mL; Kd [1]: 0.73 µM; Kd [2]: 0.068 µM
